Measured values: the supplement of paper PMC9170038

System: K4 kissing-loop RNA reporter
Assay: apparent KD of K4 kissing-loop reporter; higher = weaker reporter binding
Conditions: Eterna round: R107
Protocol: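 RNA-MaP round R107: designed RNA switches with theophylline, tryptophan, arginine or FMN aptamers are transcribed on-chip within common flanks. They are titrated with a labelled K4 kissing-loop RNA reporter in RNA-MaP buffer (100 mM Tris pH 7.5, 80 mM KCl, 4 mM MgCl2), without ligand or with the indicated ligand. Median apparent KD per design.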

[1] = input ligand: theophylline 20 uM
[2] = input ligand: tryptophan 2.4 mM
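Also: bound reporter read as fluorescence of individual clusters on recovered sequencing chips by microscopy, with normalized cluster intensities fitted with a binding model.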

| Sequence | apparent KD of K4 kissing-loop reporter (input ligand: FMN 200 uM) | apparent KD of K4 kissing-loop reporter (input ligand: arginine 13.2 mM) | apparent KD of K4 kissing-loop reporter (input ligand: none) | apparent KD of K4 kissing-loop reporter [1] | apparent KD of K4 kissing-loop reporter [2] |
| --- | --- | --- | --- | --- | --- |
| AAGAAGAAUGGAAGGAGCGAGCAGAAAUAACCAGUGAUGUUGGAAAGCCUUAUUGCUUAAGCUCAGGUAGGUCGCCAAGAAAAGA [Mostly trial and error] | 158 nM | 181 nM | 205 nM | 226 nM | 171 nM |
| GUUACGCAUGGAAGGAGCGCGAAUUUAAUUAGUGAGUGAUGUUCACAUAAAAUAUAUAAUACGCAGGUAGGUCGCCAUGUGUAAC [Ex Arginine B K4 1] | 80.8 nM | 83.1 nM | 79.3 nM | 82.8 nM | 75 nM |
| UGACAUUGCUCAGAUACCAGACCUGAGGAACACCCAGGUGCCAAAACGUACUAAAUAAAGGUCCCUUGGCAGCUGAGCAAUGUCU [TheoBX 13] | 45.7 nM | 35.1 nM | 35.4 nM | 77.6 nM | 59.7 nM |
| UGACUACAAGGAAAAUAAUCCUAGUGAUGUUAGGAUAUGCUGAUAAGCAGAAGGAACUGAGAUCGAAAGAUCUCAAAUGUAGUCU [FmnAX 27 Mat Inspired #SwitchBubble #StaticStem #K4Early] | 121 nM | 92 nM | 87.2 nM | 102 nM | 93.5 nM |
| AAGCAGUCACUCGAAAUCAUCGAAGAUGAACGAGGACCGGUACGGCCGCCACUCGGAGUGAUGUUCCGAAGACUGCAAAAUAAAA [MatMod 1 - Jieux - Exclusion - Tryptophan A] | 593 nM | 410 nM | 475 nM | 477 nM | 106 nM |
| GCGCGUCAUGUCAGCGGUGACUACGUCGAUACCAGCAGGGAAACCUGCCCUUGGCAGCGACGCGCUGGAGUGAUGUUCCGACAGA [#2 Exclusion - Theophylline A Attempt #5 (HarryS)] | 218 nM | 247 nM | 192 nM | 309 nM | 176 nM |
| GGGAGAAGAGCGGCCGCCACUCAGAAAGAAGAAGAAUAUAGUGAUGUUAUAUAGGAAAGGAAGAAGAGGACCGGGCUUAAGAGGG [#18 K4 Tryptophan B Same State] | 144 nM | 132 nM | 149 nM | 177 nM | 171 nM |
| UGUGGAGAAUAUGAUACCAGCAGUGAGAGAGAGGAAGUAUAGUGAUGUUAUAUGAGAGAAUGCCCUUGGCAGCAUAUGUAGAAGG [SSTheophylB.F] | 133 nM | 154 nM | 107 nM | 93.6 nM | 128 nM |
| AACGUUUUGAGAAGGAGCGCGUUAAGCAGUGAUGUUGCUUUAUUAUAUUUACUACAUAUUUCGCAGGUAGGUCGCUCAAUACGUA [JR_Nu_SSArginiB_Sub025] | 154 nM | 153 nM | 148 nM | 152 nM | 123 nM |
| ACACUAUCGUCAUAGACGGUAGUGAAAGCUGAGGAUAUGAGUGAUGUUAGAAGGUAGCAAGACUGUAUCGAAUAGAUACAGUCAA [FmnA 5 #K4BetweenAptamer #OpenEnded] | 227 nM | 111 nM | 163 nM | 162 nM | 141 nM |
| AGGUACAAAAGUACCGCUAGAUCCACGGAAGGAGCGCGCGAAAGCGCAGGUAGGUCGCCGGGCAGUGAUGUUGCCGGAUCUAGCA [Omei KL Arginine A SS A v7] | 134 nM | 138 nM | 126 nM | 165 nM | 144 nM |
| UGAUAGGACAGAAGGAGCGGUAGUGAUGUUGCCAAAAGGAUAAGGUGUCAAAAGACACCCUGCCAGGUAGGUCGCUGUCCUAUCU | 126 nM | 136 nM | 123 nM | 110 nM | 99.8 nM |
| GGCACUUUUGGUAGAAAACAUCUACCUCUAUAGGAUAUGCCGAAAGGCAGAAGGAUAGACCUACAGAGUGAUGUUCUGCGUGCCU | 874 nM | 143 nM | 447 nM | 356 nM | 283 nM |
| UGACUACAUAAGGAUUAAUCCUAGUGAUGUUAGGAUAUGCUGAUAAGCAGAAGGAACGGAGAUCGAAGGAUCUCAUAUGUAGUCU [whbob_Ex_FMNA__2th195] | 457 nM | 135 nM | 164 nM | 138 nM | 164 nM |
| GGCGCAGUGAUGUUGCGGGCCGAGAGUGAUACCAGCCGUAUUUGUGGCCCUUGGCAGCGCAGAACCAGUGAUGUUGGUUACUUGG [Same State Theophylline A GF 22] | 223 nM | 513 nM | 423 nM | 467 nM | 421 nM |
| AAGUACACGAUAGUGUACACCUAGUGAUGUUAGGAUAUGCAGAUAUGCAGAAGGAACAAGUCAUCUGACAAUAGUCGGAUGACAA [FmnAX 6 #OpenEnded #K4Early] | 577 nM | 75.5 nM | 109 nM | 110 nM | 98 nM |
